{"source": "patent US20250034248A1", "about": "(ALBERT EINSTEIN COLLEGE OF MEDICINE, published 2025)", "binders": {"B1": {"name": "mAb 50B5 (antibody, V domains shown)", "VH": "EVQLQQSGPELVKPGASMKISCKASGYSFTGYTINWVKQSHGKNLEWIGLFNPYNGGTTFNQKFKGKATLTVDKSSSTAYMELLSLTSEDSAVYYCARRYYGYDAMDYWGQGTSVTVSS", "VL": "NIMMTQSPSSLAVSAGEKVTMSCKSSQSVLYSSNQKNHLAWYQQKPGQSPKLLIYWASTRESGVPDRFTGSGSGTDFTLTISSVQAEDLAVYYCHQYLSSYTFGGGTKLEIK", "notes": "Mouse hybridoma antibody, IgG1 with kappa chain"}, "B2": {"name": "mAb 15B4 (antibody, V domains shown)", "VH": "EVQLQQSGAEVVRPGALVKLSCKASGFNIKDYYMHWVRQRPEQGLEWIGWIDPENDNTIYDPKFQDRASITADTSSNTAYLQLSSLTSEDTAVYYCARDFGYVAWLVYWGQGTLVTVSA", "VL": "DIVMTQSQEFMSTSVGDRVSITCKASQNVDTAVAWYQQKPGQSPKLLIYSASNRYTGVPDRFTGTGSGTDFTLTINNMQSEDLADYFCQQYSSYPTFGGRTKLEIKR", "notes": "as for B1"}}, "key": {"human Tim-3 protein [1]": {"target": "T1, human Tim-3 protein (human, UniProt Q8TDQ0 22-202, limits assumed)", "test": "surface plasmon resonance"}, "human Tim-3 protein [2]": {"target": "T1, human Tim-3 protein", "test": "Surface plasmon resonance"}, "[3]": {"target": "T2, mouse Tim-3 expressed on cell lines (mouse, UniProt Q8VIM0 20-281)", "T2 construct": "whole, on cells", "test": "FACS on cell lines expressing mouse Tim-3"}, "human Tim-3 protein [4]": {"target": "T1, human Tim-3 protein", "test": "surface plasmon resonance", "remark": "listed apart in the source"}}, "note": "Read-outs that look alike come from different tables or passages of the source."}
{"binder": "B1", "values": [{"measurement": "koff", "setting": "human Tim-3 protein [1]", "result": "2.35e-05", "unit": "s⁻¹"}, {"measurement": "kon", "setting": "human Tim-3 protein [1]", "result": 187000, "unit": "M⁻¹ s⁻¹"}, {"measurement": "Kd", "setting": "human Tim-3 protein [2]", "result": 0.13, "unit": "nM"}, {"measurement": "binding result", "setting": "[3]", "result": "no binding"}]}
{"binder": "B2", "values": [{"measurement": "Kd", "setting": "human Tim-3 protein [2]", "result": 0.32, "unit": "nM"}, {"measurement": "koff", "setting": "human Tim-3 protein [4]", "result": 0.00029, "unit": "s⁻¹"}, {"measurement": "kon", "setting": "human Tim-3 protein [4]", "result": 910000, "unit": "M⁻¹ s⁻¹"}]}
